Test: soluble on expression in E. coli; label from the status in PepcDB or PDB records

| Sequence | soluble on expression in E. coli |
| --- | --- |
| MTLDYIYHSGFAIEAEGVTVIIDYYKDSSETEHNRGIVHDYLLQRPGKLYVLATHFHPDHFNREILTWKEARPDIRYIFSKDILKSHRAKPEDATYIKKGETYEDETIRIEAFGSTDVGSSFLIHLQDWNIFHAGDLNNWHWSEESTEAEIRKANGDFLAEVKYLKEKAPKIDLALFPVDRRMGKDYMKGAKQFIEQIKTTIFVPMHFSEDYEGGNALRDFAENAGCRFVSITHRGESFEITK | not soluble |
| QKVPAPVDGERIIMELSEADVECTIKIEAEDGYANDIWADLNGNGKYDSGERLDSGEFRDVEFRQTKAIVYGKMAKFLFRGSSAGD | not soluble |
| MHSSILLLLSFASITTACPGLLNIFGGAGGGGCGGCGGGCGGGCGCAPPPPPCCGGGCGGCGRKKRSLPEKPTFVGIADSGDDVMCNTPALKKIILENIQTTASDSSKAINTVLESRQIQRFVVVCSEKPFVFTFRADAAYCGATKNGHNCHAFAM | not soluble |
| MTNKEIKKLCRSFGADLVGVASVERFVNAPKGYHPTDVMPTAKSVISLGMVLPKDILEQDIRTYTDIRNEAVKKMDKVAADVAAELKGLKYKAVSIVSLSGKFVDGHFRSRVSLKHAAELAGLGVIARNYLLTNDKYGNLLWFTAVVTSLELEPDPLATYQVCNNCNLCVDLCPSGALTDENNFSQKGCRKVCYITVKGVLELRCWQCRNVCPYKHGIND | not soluble |
| LPDGIEEVLPPEAARIEVARRQVLDLFQSWGYEFVVTPHIEYLESLLTGAGSDLDLRTFKVIDPQSGRQMGFRADITPQVARIDAHTLKREGPSRLCYAGSVLHAQPRALSSSRSPIQLGAELYGDASPSSDVEVISLMLAMLQLADVPDVHMDLGHVGIYRGLARAAGLSGEVEQQLFDALQRKAIDEVVALTANLPPELASMLRALVDLCGGREVLDAARDRLAGAPAPVLEALDDLLAIADRLAARFPQLPLYFDLGELRGYHYHTGVVFAVFVPGVGQSIAQGGRYDDIGADFGRARPATGFSTDLKTLVTLGQAEIVL | not soluble |
| MDELRELLKAEQQAIKIYKEVLKKAKEGDEQELARLIQEIVKAEKQAVKVYKEAAEKARNPEKRQVIDKILEDEEKHIEWLKAASKQGNAEQFASLVQQILQDEQRHVEEIEKKN | soluble |
| MDDSTLRDRLEQLGLSEKEVDTYLSILSSGEATASEIADDTGVSKRYVYSISESLEDRGFVEVNDHVVPTTIRARPPEEVIDALTDRLEEMSGALDSRYSASAREPQQFDVIKSRVTVIKRLTEYIRNAEREIMLSVPQQYLPEISEELGAAVDRGVLVMLVVSSADNLRSDDASGLASVVRSWDQPMPIMLTVDAQFGLVSPAEMVTRTNSDQRAIAFVQQQLVPVLSGSFLGNYWLMATEVAVTDPAPLPATYHDFRHAVLQATLHLRADHDIHVSADVRAVQADDDTTTIEGTVVETKQGLVEPETNSYPIEHTLVVDIGDRTVSLGGSGSFLEDYETDAVTLSLAE | not soluble |
| MKKSLLGIISILSLTLLFSGCVDNSGAEEQAVLHAYVGAGMQMPMDEIAIEFEEKYGIKVEYDYSGSGALLSKIVASNQGDIFMPGDCSYVYQLQEKEMSTECSNVTKHIPVIAVQKGNPKNITGLSDLGQDDLELALGDSSISIGKLFTKILSKAETKGVNVTEAVNSNTVVTGATVKQVLLYVTEKNVDAAVVWSADAYENSDAVDIVPIESEYNIIKTVPISILSTTEDYDNAKLFYDFVNNEGKEIFEKHGFVALE | not soluble |
| MSLKKIDGHAHIVDTIAGFNGKGRLNALGNGYAIWDDGDLIKLIPDEYGDKAFTAEAFLKYMDANGVDKAVILQGHLNGYQNYYTHLAIKRYPERFTGAFSVDPFADNAMQIVKRHVEVLGFRAIKFEISQGGGIHGYRGQKTPFRLDTDPHVSRILTYLLDYPGFVVTVDYGNWDQISHQPDAIANLARLYTSLDFVVCHLSFPHVEHSNRLRAELNMWKNFNNIYTDISAIQDIDAPDSFPFPKSEQNVRIAKEVLGAKRIIWGTDSPWSATFNTYEELATWLENVDIFSQEELEDVMYNNAERVYFKEEHVKANRAGIDDTTKELNLYEGHHHHHH | soluble |
| MGSDKIHHHHHHMATEIIYMVKDWFEWHDLYKNEPKLQQRLQIVQEYISYSLNLPEPGLIRVVSVCAGDGRDLLGTLSNHPRAKDVYARLVELNPHLVERGQQTIESLGLTKQIEFINGDATLSSNYLGAVPADIVIVCGVFGNLADEAELNRLLANLSFLSKQGAFVIWTRGHSNGIPHSETVRKFFREYGFEEVNFKLTATGDMGVGIHRYLGESLAAPKEQQFFAFTGVPSKAR | not soluble |

Source: the DeepSol protein solubility set
